Assay results from patent US20190177408A1 (SUZHOU CONNECT BIOPHARMACEUTICALS, published 2019).
Positions count from the first letter of the chain named.

T1: IL-4Rα on TF-1 cells (human, UniProt P24394 26-825)
T1 sequence (looked up): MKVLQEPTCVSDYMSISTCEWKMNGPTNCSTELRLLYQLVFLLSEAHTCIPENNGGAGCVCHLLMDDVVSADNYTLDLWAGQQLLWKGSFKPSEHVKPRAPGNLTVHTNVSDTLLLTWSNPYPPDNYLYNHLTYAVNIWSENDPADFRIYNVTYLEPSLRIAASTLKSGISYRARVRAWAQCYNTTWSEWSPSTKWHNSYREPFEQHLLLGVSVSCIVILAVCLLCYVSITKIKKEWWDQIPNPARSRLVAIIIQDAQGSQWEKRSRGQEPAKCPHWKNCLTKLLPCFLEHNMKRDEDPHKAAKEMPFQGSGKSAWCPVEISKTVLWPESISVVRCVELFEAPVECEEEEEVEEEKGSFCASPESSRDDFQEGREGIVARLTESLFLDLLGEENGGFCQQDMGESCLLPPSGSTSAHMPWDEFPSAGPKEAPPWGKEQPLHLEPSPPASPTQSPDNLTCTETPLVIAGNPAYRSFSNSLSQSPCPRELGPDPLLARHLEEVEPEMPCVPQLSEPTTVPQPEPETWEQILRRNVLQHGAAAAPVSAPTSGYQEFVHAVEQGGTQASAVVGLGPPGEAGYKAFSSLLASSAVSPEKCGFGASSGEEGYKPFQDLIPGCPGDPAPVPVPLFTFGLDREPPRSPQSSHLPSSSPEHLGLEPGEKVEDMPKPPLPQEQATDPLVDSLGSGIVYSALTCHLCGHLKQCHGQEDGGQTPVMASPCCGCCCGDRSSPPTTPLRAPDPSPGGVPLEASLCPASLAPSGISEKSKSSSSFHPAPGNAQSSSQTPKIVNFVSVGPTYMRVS

T2: human soluble IL-4Rα (sIL-4Rα) (human, UniProt P24394 26-232)
T2 construct: Bought reagent (PEPRO TECH, Catalog Number 200-04R); also called shIL-4Rα; soluble hIL-4 Rα
T2 sequence: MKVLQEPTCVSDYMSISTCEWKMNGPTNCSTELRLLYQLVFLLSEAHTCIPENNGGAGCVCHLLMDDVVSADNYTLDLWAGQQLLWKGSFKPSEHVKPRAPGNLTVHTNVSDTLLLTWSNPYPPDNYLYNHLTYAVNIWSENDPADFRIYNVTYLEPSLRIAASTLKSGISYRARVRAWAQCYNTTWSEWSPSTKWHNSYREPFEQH

B1: L1021H1031 (antibody, V domains shown)
VH: EVQLVESGGGLVQPGGSLRLSCAASGFTFSRNAMFWVRQAPGKGLEWVSGIGTGGATSYADSVKGRFTISRDNAKNSLYLQMNSLRAEDTAVYYCARGRYYFDYWGQGTLVTVSS
VL: EIVLTQSPGTLSLSPGERATLSCRASQSVSSSYLAWYQQKPGQAPRLLIFGASSRAPGIPDRFSGSGSGTDFTLTISRLEPEDFAVYYCQQYDHSAGWTFGQGTKVEIK
notes: human kappa
B2: L1021H1016 (antibody, V domains shown)
VH: B1 VH with E6Q, Q13H, A24G, S58N, T90M, D103P, Y104W
VL: B1 VL
notes: human kappa
B3: L1021H1020 (antibody, V domains shown)
VH: B1 VH with E6Q, Q13H, A24G, T90M, D103P, Y104W
VL: B1 VL
notes: human kappa
B4: L1001H1000 (antibody, V domains shown)
VH: B1 VH with E6Q, Q13H, A24G, S58N, T90M
VL: B1 VL with S31N, F50Y
notes: human kappa
B5: L1013H1000 (antibody, V domains shown)
VH: B1 VH with E6Q, Q13H, A24G, S58N, T90M
VL: B1 VL with S31N, P57T, A96P, G97P
notes: human kappa
B6: L1015H1000 (antibody, V domains shown)
VH: B1 VH with E6Q, Q13H, A24G, S58N, T90M
VL: B1 VL with A96P, G97P
notes: human kappa
B7: L1024H1031 (antibody, V domains shown)
VH: B1 VH
VL: B1 VL with S31N
notes: human kappa
B8: L1020H1016 (antibody, V domains shown)
VH: B1 VH with E6Q, Q13H, A24G, S58N, T90M, D103P, Y104W
VL: B1 VL with F50Y, P57T
notes: human kappa
B9: L1016H1000 (antibody, V domains shown)
VH: B1 VH with E6Q, Q13H, A24G, S58N, T90M
VL: B1 VL with P57T, A96P, G97P
notes: human kappa
B10: L1024H1007 (antibody, V domains shown)
VH: B1 VH with E6Q, Q13H, A24G, T90M
VL: B1 VL with S31N
notes: human kappa
B11: L1022H1000 (antibody, V domains shown)
VH: B1 VH with E6Q, Q13H, A24G, S58N, T90M
VL: B1 VL with S31N, F50Y, P57T
notes: human kappa
B12: L1021H1027 (antibody, V domains shown)
VH: B1 VH with Q13H, D103P, Y104W
VL: B1 VL
notes: human kappa
B13: L1021H1029 (antibody, V domains shown)
VH: B1 VH with T90M, D103P, Y104W
VL: B1 VL
notes: human kappa
B14: L1020H1031 (antibody, V domains shown)
VH: B1 VH
VL: B1 VL with F50Y, P57T
notes: human kappa
B15: L1020H1027 (antibody, V domains shown)
VH: B1 VH with Q13H, D103P, Y104W
VL: B1 VL with F50Y, P57T
notes: human kappa
B16: L1019H1000 (antibody, V domains shown)
VH: B1 VH with E6Q, Q13H, A24G, S58N, T90M
VL: B1 VL with S31N, P57T
notes: human kappa
B17: L1024H1000 (antibody, V domains shown)
VH: B1 VH with E6Q, Q13H, A24G, S58N, T90M
VL: B1 VL with S31N
notes: human kappa
B18: L1017H1000 (antibody, V domains shown)
VH: B1 VH with E6Q, Q13H, A24G, S58N, T90M
VL: not shown
notes: human kappa
B19: L1020H1000 (antibody, V domains shown)
VH: B1 VH with E6Q, Q13H, A24G, S58N, T90M
VL: B1 VL with F50Y, P57T
notes: human kappa
B20: L1021H1007 (antibody, V domains shown)
VH: B1 VH with E6Q, Q13H, A24G, T90M
VL: B1 VL
notes: human kappa
B21: L1020H1020 (antibody, V domains shown)
VH: B1 VH with E6Q, Q13H, A24G, T90M, D103P, Y104W
VL: B1 VL with F50Y, P57T
notes: human kappa
B22: L1020H1007 (antibody, V domains shown)
VH: B1 VH with E6Q, Q13H, A24G, T90M
VL: B1 VL with F50Y, P57T
notes: human kappa
B23: L1021H1000 (antibody, V domains shown)
VH: B1 VH with E6Q, Q13H, A24G, S58N, T90M
VL: B1 VL
notes: human kappa
B24: L1023H1000 (antibody, V domains shown)
VH: B1 VH with E6Q, Q13H, A24G, S58N, T90M
VL: B1 VL with F50Y

Target: T1, IL-4Rα on TF-1 cells
Assay: cell-based or functional assay

| IC50 (ng/ml) (Inhibition on the proliferation of IL-4) [ng/mL] | IC50 (ng/ml) (Inhibition on the proliferation of IL-13) [ng/mL] | Binder |
| --- | --- | --- |
| 34.3 | 76.5 | B1 |
| 28.5 | 69.7 | B2 |
| 15.4 | 28.6 | B3 |

Target: T2, human soluble IL-4Rα (sIL-4Rα)
Assay: ELISA, coated sIL-4Rα, culture supernatant
Experimental: 100 μl of 100 μg/ml sIL-4Rα solution was added to 9.90 ml of PBS, mixed up and down, and then an antigen coating buffer of 1.0 μg/ml was obtained. The prepared antigen coating buffer was added to a 96-well ELISA plate (Corning) with a volume of 100 μl per well. The 96-well ELISA plate was incubated overnight in a refrigerator at 4° C. On the next day; the solution therein was discarded; and PBS containing 2% BSA was added to the 96-well ELISA plate row by row with a volume of 300 μl per well. The 96-well ELISA plate was incubated for 2 hours in a refrigerator at 4° C., Then the PBS containing 2% BSA was discarded and the plate was washed 3 times with PBST. Diluted antibodies to be tested were sequentially added to the corresponding wells, while the normal cell culture supernatants, as negative control samples, were added too. Three duplicate wells were made for each sample with a volume of 100 μl per well. The ELISA plate was wrapped with preservative film (or covered) and incubated for 1 h at […] in a constant temperature incubator. Subsequently, the 96-well ELISA plate was taken out, and the solution therein was discarded. After washing with PBST for 3 times, TMB solution (Solarbio, Catalog Number: PR1200) was added to the 96-well ELISA plate row by row with a volume of 100 μl per well. The 96-well ELISA plate was placed at room temperature for 5 minutes, and 2 M H2SO4 solution was added in immediately to terminate the reaction. The 96-well ELISA plate was placed in flexstation 3 (Molecular Devices), the values of OD450 were read, and the data were collected, calculated and analyzed. Results were expressed relative to the affinity of control antibody 1.

| OD 450/OD450Control antibody 1 | Binder |
| --- | --- |
| 1.56 | B4 |
| 0.9 | B1 |
| 0.24 | B5 |
| 0.67 | B6 |
| 0.9 | B7 |
| 0.8 | B8 |
| 0.27 | B9 |
| 0.23 | B10 |
| 0.16 | B11 |
| 0.63 | B2 |
| 0.29 | B12 |
| 1 | B13 |
| 1.12 | B14 |
| 0.4 | B15 |
| 1.79 | B16 |
| 0.69 | B17 |
| 0.49 | B18 |
| 2.27 | B19 |
| 0.44 | B20 |
| 0.26 | B21 |
| 0.24 | B3 |
| 0.4 | B22 |
| 2.42 | B23 |

Target: T1, IL-4Rα on TF-1 cells
Assay: cell-based or functional assay
Remark: another data set of the same source

| Inhibitory rate on pro-proliferative effect of IL-4 | Inhibitory rate on pro-proliferative effect of IL-13 | Binder |
| --- | --- | --- |
| 0.98 | 0.85 | B4 |
| 1.01 | 0.93 | B1 |
| 1.01 | 0.94 | B7 |
| 1 | 0.94 | B2 |
| 1.02 | 0.94 | B12 |
| 1.02 | 0.92 | B13 |
| 1 | 0.86 | B20 |
| 0.91 | 0.75 | B3 |
| 0.95 | 0.78 | B23 |

Target: T1, IL-4Rα on TF-1 cells
Assay: cell-based or functional assay
Remark: another data set of the same source

| Inhibitory rate on pro-proliferative effect of IL-4 | Inhibitory rate on pro-proliferative effect of IL-13 | Binder |
| --- | --- | --- |
| 0.86 | 0.7 | B10 |
| -0.05 | 0.02 | B11 |
| 0.72 | 0.49 | B16 |
| 0.26 | 0.07 | B24 |
| 0.44 | 0.39 | B17 |
